Consider 1 protein from publication PMC3782427, “The N-Terminal Region of the Human Autophagy Protein ATG16L1 Contains a Domain That Folds into a Helical Structure Consistent with Formation of a Coiled-Coil” (PLoS ONE, 2013).

This data set deals with the molecule itself. The data set is described as follows: native gel or EMSA; Native-PAGE, Novex 4-20% Tris-glycine native gel, 1 ug protein a lane, before and after freeze/thawing at -80 C.

As a reminder, the stoichiometry N is the number of molecules, sites or subunits per partner or assembly.

B1: human ATG16L1 coiled-coil domain construct 3 (CCD3-FLAG-6His), residues M126-A207 (domain or fragment, UniProt Q676U5-1 126-207, looked up)
chain: MNEAKIAECLQTISDLETECLDLRTKLCDLERANQTLKDEYDALQITFTALEGKLRKTTEENQELVTRWMAEKAQEANRLNA
notes: human ATG16L1 isoform 1 (NP_110430.5, full length M1-Y607), coiled-coil domain, residues M126-A207; amplified from pCMV-FLAG-ATG16L1; Expressed as GST-CCD3-FLAG-6His with a TEV site between GST and the insert; Calculated molecular weight printed as 11.3 kDa; also called CCD3FH; minimal coiled-coil domain; source: E. coli Rosetta 2, purified (glutathione sepharose, on column TEV cleavage, HIC); …
B1: the “stoichiometry N” value worked out at 2.
